Source: patent US20050143285A1 (published 2005)

Experiments:
α-bungarotoxin [1] = biological target: T1, α-bungarotoxin (UniProt P60615 22-95); test: stopped-flow spectrofluorimetry
T1 sequence: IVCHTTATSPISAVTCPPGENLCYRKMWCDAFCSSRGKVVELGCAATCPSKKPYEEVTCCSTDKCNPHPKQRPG

α-bungarotoxin [2] = biological target: T1, α-bungarotoxin; test: stopped-flow spectrofluorimetry, excitation 280 nm, emission above 305 nm
α-bungarotoxin [3] = biological target: T1, α-bungarotoxin

B1: Aplysia californica acetylcholine binding protein (AChBP) (other)
chain: HSQANLMRLKSDLFNRSPMYPGPTKDDPLTVTLGFTLQDIVKADSSTNEVDLVYYEQQRWKLNSLMWDPNEYGNITDFRTSAADIWTPDITAYSSTRPVQVLSPQIAVVTHDGSVMFIPAQRLSFMCDPTGVDSEEGATCAVKFGSWVYSGFEIDLKTDTDQVDLSSYYASSKYEILSATQTRQVQHYSCCPEPYIDVNLVVKFRERRAGNGFFRNLFD
Q: Which results are given for B1?
A: koff (α-bungarotoxin [1]): 0.32 s⁻¹; kon (α-bungarotoxin [2]): 1e+06 M⁻¹ s⁻¹; Kd (α-bungarotoxin [3]): 250 nM
